We go through ten molecules from patent US20250304640A1 (ORIKINE BIO SL, published 2025).

Assay in all cases: cell-based or functional assay
Experiment [1] deals with T1, IL-10 receptor (IL-10R: IL10RA and IL10RB) on HEK-Blue IL-10 reporter cells (UniProt Q13651 22-578; Q08334 20-325, limits assumed).
T1 sequence (looked up) 1: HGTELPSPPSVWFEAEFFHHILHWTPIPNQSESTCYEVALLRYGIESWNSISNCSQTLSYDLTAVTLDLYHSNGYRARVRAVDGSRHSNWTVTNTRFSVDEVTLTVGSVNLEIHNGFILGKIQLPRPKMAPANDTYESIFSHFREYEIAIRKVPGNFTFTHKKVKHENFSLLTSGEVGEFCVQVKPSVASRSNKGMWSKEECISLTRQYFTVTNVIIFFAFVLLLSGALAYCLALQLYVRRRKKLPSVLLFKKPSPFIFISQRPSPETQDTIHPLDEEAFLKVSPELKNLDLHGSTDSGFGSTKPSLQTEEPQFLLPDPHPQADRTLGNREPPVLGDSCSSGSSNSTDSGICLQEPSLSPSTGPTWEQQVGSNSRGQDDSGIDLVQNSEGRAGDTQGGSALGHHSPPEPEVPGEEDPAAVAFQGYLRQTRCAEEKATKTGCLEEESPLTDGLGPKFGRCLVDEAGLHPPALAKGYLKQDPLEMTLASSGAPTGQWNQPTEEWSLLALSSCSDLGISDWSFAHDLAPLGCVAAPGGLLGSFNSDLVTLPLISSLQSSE
T1 sequence (looked up) 2: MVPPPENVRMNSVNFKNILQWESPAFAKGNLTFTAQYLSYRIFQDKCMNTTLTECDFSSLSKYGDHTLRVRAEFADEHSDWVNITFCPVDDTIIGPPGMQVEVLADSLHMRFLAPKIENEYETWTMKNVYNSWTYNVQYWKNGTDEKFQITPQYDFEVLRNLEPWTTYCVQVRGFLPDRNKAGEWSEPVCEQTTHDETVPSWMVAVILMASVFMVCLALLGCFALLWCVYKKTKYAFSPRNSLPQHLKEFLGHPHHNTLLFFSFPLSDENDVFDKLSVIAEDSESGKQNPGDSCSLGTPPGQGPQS

Experiment [2] concerns the target T1, IL-10 receptor (IL-10R: IL10RA and …). The source holds these as a separate data set.
Experiment [3] deals with T2, CSF1 receptor (CSF1R) (UniProt P07333 20-972, limits assumed).
Experiment [4] deals with T1, IL-10 receptor (IL-10R: IL10RA and …). The source holds these as a separate data set.
The target of experiment [5] is T2, CSF1 receptor (CSF1R). This is another data set of the same source.
Another experiment addresses T3, IL10RB (UniProt Q08334 20-325, limits assumed).
T3 sequence (looked up): T1 sequence (looked up) 2

Where two headings read alike, the source gives them in different places.

T2 sequence (P07333 20-972 limits assumed): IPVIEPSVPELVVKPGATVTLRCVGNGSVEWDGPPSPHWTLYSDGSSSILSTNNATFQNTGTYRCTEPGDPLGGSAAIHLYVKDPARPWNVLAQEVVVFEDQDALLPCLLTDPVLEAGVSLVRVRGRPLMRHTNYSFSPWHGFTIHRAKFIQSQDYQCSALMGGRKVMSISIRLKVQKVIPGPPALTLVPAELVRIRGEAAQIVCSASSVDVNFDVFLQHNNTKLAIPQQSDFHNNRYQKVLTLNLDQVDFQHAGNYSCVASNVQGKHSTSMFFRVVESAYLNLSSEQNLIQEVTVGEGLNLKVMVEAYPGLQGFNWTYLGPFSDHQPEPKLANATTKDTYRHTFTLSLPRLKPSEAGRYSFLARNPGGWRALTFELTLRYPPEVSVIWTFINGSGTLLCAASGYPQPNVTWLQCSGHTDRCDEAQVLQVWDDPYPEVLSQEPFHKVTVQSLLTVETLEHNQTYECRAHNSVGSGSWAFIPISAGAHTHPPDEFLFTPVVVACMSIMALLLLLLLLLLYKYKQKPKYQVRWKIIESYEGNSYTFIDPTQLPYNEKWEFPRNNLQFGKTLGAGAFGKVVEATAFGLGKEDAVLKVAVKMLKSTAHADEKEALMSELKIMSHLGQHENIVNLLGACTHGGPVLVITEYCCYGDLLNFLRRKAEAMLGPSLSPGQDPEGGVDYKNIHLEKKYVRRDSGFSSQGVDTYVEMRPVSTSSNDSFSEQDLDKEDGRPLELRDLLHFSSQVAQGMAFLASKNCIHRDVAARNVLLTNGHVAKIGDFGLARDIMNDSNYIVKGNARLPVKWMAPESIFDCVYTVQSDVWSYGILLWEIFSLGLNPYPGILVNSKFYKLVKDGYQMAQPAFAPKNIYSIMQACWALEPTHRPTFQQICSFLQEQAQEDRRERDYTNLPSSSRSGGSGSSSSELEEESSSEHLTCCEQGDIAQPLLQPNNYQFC

B1: CSF1-Foldikine10_cut116-HiBit (ligand)
chain: EEVSEYCSHMIGSGHLQSLQRLIDSQMETSCQITFEFVDQEQLKDPVCYLKKAFLLVQDIMEDTMRFRDNTPNAIAIVQLQELSLRLKSCFTKDYEEHDKACVRTFYETPLQLLEKVKNVFNETKNLLDKDWNIFSKNCNNSFAECSSQDGGGGGSGGSGGSGGSGGSGGSGGSGGSGGGMTQSENSCTHFPGNLPNMLRDLRDAFSRVKTFFQMKDQLDNLLLKESLLEDFKGYLGCQALSEMIQFYLEEVMPQAENQEPDIKAHVNSLGENLKTLRLRLRRCHRFLPCENKSKAVEQVKNAFNKLQEKGIYKAMSEFDIFINYIEAYMTMNNGGLDYLPNMLRDLRDAFSRVKTFFQMKDQLDNLLLKESLLEDFKGYLGCQALSEMIQFYLEEVMPQAENQDPDIKAHVNSLGENLKTLRLRLRRNHRFLPCENKSKAVEQVKNAFNKLQEKGIYKAMSEFDIFINYIEAYMTMKIRNGGVSGWRLFKKIS
For B1, the “IL-10 EC-50, HEK-Blue IL-10 reporter cells” value in experiment [1] amounted to 3.06e-10.

B2: CSF1-25AA-Foldikine10-HiBit (ligand)
chain: B1 chain
On to B2, for which the “EC-50 for IL10 activity, HEK-Blue IL-10 reporter cells” value (shortened to “EC-50 for IL10 activity”) in experiment [2] was found to be 3.61e-10. Further, the “EC-50 for CSF1 activity, HEK293 CSF1R/SRE reporter” value with CSF1 receptor (CSF1R) [3] came to 1.64e-09.

B3: CSF1-35AA-Foldikine10-HiBit (ligand)
chain: EEVSEYCSHMIGSGHLQSLQRLIDSQMETSCQITFEFVDQEQLKDPVCYLKKAFLLVQDIMEDTMRFRDNTPNAIAIVQLQELSLRLKSCFTKDYEEHDKACVRTFYETPLQLLEKVKNVFNETKNLLDKDWNIFSKNCNNSFAECSSQDGGGGGSGGGGSGGSGGSGGSGGSGGSGGSGGSGGGMTQSENSCTHFPGNLPNMLRDLRDAFSRVKTFFQMKDQLDNLLLKESLLEDFKGYLGCQALSEMIQFYLEEVMPQAENQEPDIKAHVNSLGENLKTLRLRLRRCHRFLPCENKSKAVEQVKNAFNKLQEKGIYKAMSEFDIFINYIEAYMTMNNGGLDYLPNMLRDLRDAFSRVKTFFQMKDQLDNLLLKESLLEDFKGYLGCQALSEMIQFYLEEVMPQAENQDPDIKAHVNSLGENLKTLRLRLRRNHRFLPCENKSKAVEQVKNAFNKLQEKGIYKAMSEFDIFINYIEAYMTMKIRNGGVSGWRLFKKIS
For B3, in experiment [2], the “EC-50 for IL10 activity” value was found to be 3.18e-10. Further, in the experiment with CSF1 receptor (CSF1R) [3], the “EC-50 for CSF1 activity, HEK293 CSF1R/SRE reporter” value came out at 1.83e-09.

B4: Foldikine10-CSF1-HiBit (ligand)
chain: MTQSENSCTHFPGNLPNMLRDLRDAFSRVKTFFQMKDQLDNLLLKESLLEDFKGYLGCQALSEMIQFYLEEVMPQAENQEPDIKAHVNSLGENLKTLRLRLRRCHRFLPCENKSKAVEQVKNAFNKLQEKGIYKAMSEFDIFINYIEAYMTMNNGGLDYLPNMLRDLRDAFSRVKTFFQMKDQLDNLLLKESLLEDFKGYLGCQALSEMIQFYLEEVMPQAENQDPDIKAHVNSLGENLKTLRLRLRRNHRFLPCENKSKAVEQVKNAFNKLQEKGIYKAMSEFDIFINYIEAYMTMKIRNGGGGGSGGSGGSGGSGGSGGSGGSGGSGGGEEVSEYCSHMIGSGHLQSLQRLIDSQMETSCQITFEFVDQEQLKDPVCYLKKAFLLVQDIMEDTMRFRDNTPNAIAIVQLQELSLRLKSCFTKDYEEHDKACVRTFYETPLQLLEKVKNVFNETKNLLDKDWNIFSKNCNNSFAECSSQDGGVSGWRLFKKIS
As to B4, the “IL-10 EC-50, HEK-Blue IL-10 reporter cells” value in experiment [4] worked out at 1.36e-09. In the experiment with CSF1 receptor (CSF1R) [5], the “CSF1 EC-50, HEK293 CSF1R/SRE reporter” value was 3.18e-09.

B5: Foldikine10_cut116-CSF1-HiBit (ligand)
chain: NKSKAVEQVKNAFNKLQEKGIYKAMSEFDIFINYIEAYMTMNNGGLDYLPNMLRDLRDAFSRVKTFFQMKDQLDNLLLKESLLEDFKGYLGCQALSEMIQFYLEEVMPQAENQDPDIKAHVNSLGENLKTLRLRLRRNHRFLPCENKSKAVEQVKNAFNKLQEKGIYKAMSEFDIFINYIEAYMTMNNGGLDYLPNMLRDLRDAFSRVKTFFQMKDQLDNLLLKESLLEDFKGYLGCQALSEMIQFYLEEVMPQAENQDPDIKAHVNSLGENLKTLRLRLRRNHRFLPCEGGGGGSGGSGGSGGSGGSGGSGGSGGSGGGEEVSEYCSHMIGSGHLQSLQRLIDSQMETSCQITFEFVDQEQLKDPVCYLKKAFLLVQDIMEDTMRFRDNTPNAIAIVQLQELSLRLKSCFTKDYEEHDKACVRTFYETPLQLLEKVKNVFNETKNLLDKDWNIFSKNCNNSFAECSSQDGGGVSGWRLFKKIS
As for B5, the “IL-10 EC-50, HEK-Blue IL-10 reporter cells” value in experiment [1] was 4.95e-10.

B6: ORK10-003-HiBit N92E (ligand)
chain: MTQSENSCTHFPGNLPNMLRDLRDAFSRVKTFFQMKDQLDNLLLKESLLEDFKGYLGCQALSEMIQFYLEEVMPQAENQDPDIKAHVNSLGENLKTLRLRLRRCHRFLPCENKSKAVEQVKNAFNKLQEKGIYKAMSEFDIFINYIEAYLYKTITPEFANMLRDLRDAFSRVKTFFQMKDQLDNLLLKESLLEDFKGYLGCQALSEMIQFYLEEVMPQAENQDPDIKAHVESLGENLKTLRLRLRRCHRFLPCENKSKAVEQVKNAFNKLQEKGIYKAMSEFDIFINYIEAYMTMGGVSGWRLFKKIS
In the case of B6, the “EC-50, HEK-Blue IL-10 reporter cells” value with IL10RB came to 1.19e-10.

B7: CSF1-IL10-HiBit (ligand)
chain: EEVSEYCSHMIGSGHLQSLQRLIDSQMETSCQITFEFVDQEQLKDPVCYLKKAFLLVQDIMEDTMRFRDNTPNAIAIVQLQELSLRLKSCFTKDYEEHDKACVRTFYETPLQLLEKVKNVFNETKNLLDKDWNIFSKNCNNSFAECSSQDGGGGGSGGSGGSGGSGGSGGSGGSGGSGGGSPGQGTQSENSCTHFPGNLPNMLRDLRDAFSRVKTFFQMKDQLDNLLLKESLLEDFKGYLGCQALSEMIQFYLEEVMPQAENQDPDIKAHVNSLGENLKTLRLRLRRCHRFLPCENKSKAVEQVKNAFNKLQEKGIYKAMSEFDIFINYIEAYMTMKIRNGGVSGWRLFKKIS
As to B7, the “IL-10 EC-50, HEK-Blue IL-10 reporter cells” value in experiment [4] worked out at 1.16e-09. In addition, in the experiment with CSF1 receptor (CSF1R) [5], the “CSF1 EC-50, HEK293 CSF1R/SRE reporter” value stood at 7.81e-10.

B8: CSF1-15AA-Foldikine10-HiBit (ligand)
chain: EEVSEYCSHMIGSGHLQSLQRLIDSQMETSCQITFEFVDQEQLKDPVCYLKKAFLLVQDIMEDTMRFRDNTPNAIAIVQLQELSLRLKSCFTKDYEEHDKACVRTFYETPLQLLEKVKNVFNETKNLLDKDWNIFSKNCNNSFAECSSQDGGSGGSGGSGGSGGGMTQSENSCTHFPGNLPNMLRDLRDAFSRVKTFFQMKDQLDNLLLKESLLEDFKGYLGCQALSEMIQFYLEEVMPQAENQEPDIKAHVNSLGENLKTLRLRLRRCHRFLPCENKSKAVEQVKNAFNKLQEKGIYKAMSEFDIFINYIEAYMTMNNGGLDYLPNMLRDLRDAFSRVKTFFQMKDQLDNLLLKESLLEDFKGYLGCQALSEMIQFYLEEVMPQAENQDPDIKAHVNSLGENLKTLRLRLRRNHRFLPCENKSKAVEQVKNAFNKLQEKGIYKAMSEFDIFINYIEAYMTMKIRNGGVSGWRLFKKIS
Turning to B8, in experiment [2], the “EC-50 for IL10 activity” value amounted to 2.6e-10. Moreover, the “EC-50 for CSF1 activity, HEK293 CSF1R/SRE reporter” value in the experiment with CSF1 receptor (CSF1R) [3] turned out to be 1.19e-09.

B9: IL-10-CSF1-HiBit (ligand)
chain: SPGQGTQSENSCTHFPGNLPNMLRDLRDAFSRVKTFFQMKDQLDNLLLKESLLEDFKGYLGCQALSEMIQFYLEEVMPQAENQDPDIKAHVNSLGENLKTLRLRLRRCHRFLPCENKSKAVEQVKNAFNKLQEKGIYKAMSEFDIFINYIEAYMTMKIRNGGGGGSGGSGGSGGSGGSGGSGGSGGSGGGEEVSEYCSHMIGSGHLQSLQRLIDSQMETSCQITFEFVDQEQLKDPVCYLKKAFLLVQDIMEDTMRFRDNTPNAIAIVQLQELSLRLKSCFTKDYEEHDKACVRTFYETPLQLLEKVKNVFNETKNLLDKDWNIFSKNCNNSFAECSSQDGGVSGWRLFKKIS
Consider B9, for which, in experiment [4], the “IL-10 EC-50, HEK-Blue IL-10 reporter cells” value turned out to be 5.9e-09. Also, the “CSF1 EC-50, HEK293 CSF1R/SRE reporter” value with CSF1 receptor (CSF1R) [5] is 4.64e-09.

B10: Foldikine10_cut116 (ligand)
chain: NKSKAVEQVKNAFNKLQEKGIYKAMSEFDIFINYIEAYMTMNNGGLDYLPNMLRDLRDAFSRVKTFFQMKDQLDNLLLKESLLEDFKGYLGCQALSEMIQFYLEEVMPQAENQDPDIKAHVNSLGENLKTLRLRLRRNHRFLPCENKSKAVEQVKNAFNKLQEKGIYKAMSEFDIFINYIEAYMTMNNGGLDYLPNMLRDLRDAFSRVKTFFQMKDQLDNLLLKESLLEDFKGYLGCQALSEMIQFYLEEVMPQAENQDPDIKAHVNSLGENLKTLRLRLRRNHRFLPCE
B10: in experiment [1], the “IL-10 EC-50, HEK-Blue IL-10 reporter cells” value came out at 2.41e-10.
